Assay results: the DeepSol protein solubility set

Assay: soluble on expression in E. coli; label from the status in PepcDB or PDB records

| Sequence | soluble on expression in E. coli |
| --- | --- |
| MQALILEQQDGKTLASVQHLEESQLPAGDVTVDVHWSSLNYKDALAITGKGKIIRHFPMIPGIDFAGTVHASEDPRFHAGQEVLLTGWGVGENHWGGLAERARVKGDWLVALPAGLSSRNAMIIGTAGFTAMLCVMALEDAGIRPQDGEVVVTGASGGVGSTAVALLHKLGYQVAAVSGRESTHGYLKSLGANRILSRDEFAESRPLEKQLWAGAIDTVGDKVLAKVLAQMNYGGCVAACGLAGGFALPTTVMPFILRNVRLQGVDSVMTPPARRAEAWARLVKDLPESFYAQAATEITLADAPKFADAIINNQVQGRTLVKIK | not soluble |
| MSLSKMEEILVIGVNTRPVVESAFRLGYRVYSAGYYCTADFKHYTERRCILRERSGESCGRFHENFSQEKLLEAASDFIERADGIIPLTGAPPLPGEKVLGNSRVDHVEDKYRLYRRIRNSYPTPETHLISDPAEAMEIVAAGEKKYIAKPVSGAGGFGVTEFREGDGEFLLQEYIEGVPVSASVLSTGEDAITVLTSRQIIDRGVPGFEGQFVYAGNMTPGPSGEIEDLASDLILDLSLRGSNGVDLIMRDSELYVIEVNPRIQGTFECAEASLGINMVDAHIRACMGELIEKPDPVSYAVKRILYAPARCRVGEIKTMGVHDLPVPGTIIEEGEPLLTVLASHNSMEAAENLASNICSRVKKELHYLRCPPPRPQGVEGHHHHHH | not soluble |
| MTTIASFPILQLPEKSLKIAIQSLTLEELIKFSLISKSTKRAAESLNLQADPFCDLY | not soluble |
| MAHHHHHHMHFSLQKKNICTNSTKCVNVHPYLFPPLGMVPKRVRYDVHRGGEQHTDITNLLHTFKRFKMVKTSSYRRKSRSSPNGQGQKAKIGIKRLSAEYVKTGQLLVKQRKIIAFNLERKTRRRNFKYYPGEHVKVTKNTSLVALTNGRVKYTFHTTQNVLIVNVLPEEIDELREEDLYRYRTEHVRSLEENRSLVYLRMKHVVSFPPSKETQFRKPPLRPQFLARYDIEDNPTLREVPVLYHKPK | not soluble |
| METALYLLPVTLGDTPLEQVLPSYNTEIIRGIRHFIVEDVRSARRFLKKVDREIDIDSLTFYPLNKHTSPEDISGYLKPLAGGASMGVISEAGCPAVADPGADVVAIAQRQKLKVIPLVGPSSIILSVMASGFNGQSFAFHGYLPIEPGERAKKLKTLEQRVYAESQTQLFIETPYRNHKMIEDILQNCRPQTKLCIAANITCEGEFIQTRTVKDWKGHIPELSKIPCIFLLYKLEHHHHHH | soluble |
| MALSDVKVRSAKPEAKAYKLTDGEGMVLLVHPNGSKYWRLRYRFGGKEKMLALGKYPEVSLADARARRDEARKLLANGVDPSENKKAVKVEQEQEAITFEVVARDWHASNQKWSASHSARVLKSLEDNLFTAIGKRNIAELKTRDLLVPIKAVESSGRLEVAARLQQRTTAIMRFAVQSGLIDYNPAQEIAGAVATAKRQHRAALELNRIPELLHRIDHYSGRPLTRLAVELTLLVFIRSSELRFARWSEIDFETAMWTIPGEREQLEGVKHSQRGSKMRTPHLVPLSRQALSILEKIKSMSGNRELIFVGDHDPRKPMSENTVNKALRVMGYDTKVEVCGHGFRTMACSSLIESGLWSRDAVERQMSHQERSSVRAAYIHKAEHLGERRLMFEVVNKNWPPS | not soluble |
| SHMSLTPDQIVAALQERGWQAEIVTEFSLLNEMVDVDPQGILKCVDGRGSDNTQFCGPKMPGGIYAIAHNRGVTTLEGLKQITKEVASKGHVPSVHGDHSSDMLGCGFFKLWVTGRFDDMGYPRPQFDADQGAKAVENAGGVIEMHHGSHAEKVVYINLVENKTLEPDEDDQRFIVDGWAAGKFGLDVPKFLIAAAATVEMLGGPKKAKIVIP | soluble |
| IRSFATHAQLPISIVNREDDAFLNPNFRFIDHSIIGKNVPVADQSFRVGCSCASDEECMYSTCQCLDEMAPDSDEEADPYTRKKRFAYYSQGAKKGLLRDRVLQSQEPIYECHQGCACSKDCPNRVVERGRTVPLQIFRTKDRGWGVKCPVNIKRGQFVDRYLGEIITSEEADRRRAESTIARRKDVYLFALDKFSDPDSLDPLLAGQPLEVDGEYMSGPTRFINHSCDPNMAIFARVGDHADKHIHDLALFAIKDIPKGTELTFDYVNGLTGLESDAHDPSKISEMTKCLCGTAKCRGYLW | soluble |
| MSVKLRLPQSAYPIFDRIEEMAWARHYQQIVREEKETELADDLEKGLPQHLFESLCIDHLQRHGANKQAISHAFDDDVEFQERMAEHIRYMAETIAHHQVDIDLEDLEHHHHHH | not soluble |
| MSLKALVLTGTKQFEMQDVTTPTVKDDEVLVNTAYAGICGTDRALYAGLPGSADAVPPIVLGHENSGIVAAIGRNVTNVKVGDRVTVDPNIYCGECEYCRTDRPELCDNLSAVGVTRDGGLEESFTAPASVVYPIPDSVSLKAAATVEPISCAVHGVKLLDLTPYQKALVIGDGFMGQLFVQLLQAYGVHQVDFAGIVDEKLAFNKEKFGVTNTYNTTRDSIPADYDVVIEAVGLPQTQEQAVEATKKGAQVLMFGVGKPNQTFSMNTYEVYQKQLKIQGAFINPYAFEDSIALLASGQLDVESLISHEVSLEQVEDVLNGKVEHVSKAVVKVSEGHHHHHH | soluble |
| MGSDKIHHHHHHMDSYSDVKMGEYEPTWRSGMAKSITFIVTEDCQLRCGYCYIIGKNKFNRMSFTIARTAVDYILHNRALFWEDSVIWDFIGGEPLLEIELIDRICDYIKRRMYELDHPWFNSYRFSFSTNGLLYGTEKVQRFIRKNAHHLSISISIDGTRKKHDAQRVFPDGSGSYDAVVKNVPLWLKQFPNASTKATVAHDDLPLLKESVIHLWQLGLKNVTINLVNENIWEPGDDIIYETQLRELADYIVENDLYDTHNCSFFSKSIGKPLDCKTDNGNWCGSGKMLAIDGDGVFYPCVRFAPYSMRYKPARSIGNCFDGLDMNRVRPFLVLNRSMQSPEECIACDVASGCAWCQGNNYDLAATDTIYQRAVYTCAMHKARVRANRYFGEKLADRLGRERPVEAR | not soluble |
| MRIAVIDYDKCNPDKCGHFLCERVCPVNRMGGEAIIIDEENNRPIIQEASCTGCGICVHKCPFKAISIVNLPEQLEEDCVHRYGVNAFVLYRLPVVKDGMVVGIVGPNGTGKTTAVKILAGQLIPNLCCDNDSWDDVIKAFRGSELQNYFEKLKNGEIKPVVKPQYVDLLPKAVKGKVGELLKKVDETGKFEEIVKVLELEKVLEREIDQLSGGELQRVAIAAAILRKAHFYFFDEPSSYLDIRQRLNVARVIRRLADEGKAVLVVEHDLAVLDYLSDIVHIVYGEPGVYGIFSQPKGTRNGINEFLQGYLKDENVRFRPYEIKFTKLSERVEVERETLVEYPRLVKDYGSFKLEVEPGEIRKGEVIGIVGPNGIGKTTFVKMLAGVEEPTEGKVEWDLTVAYKPQYIKAEYEGTVYDLLSKIDASKLNSNFYKTELLKPLGIIDLYDKNVNELSGGELQRVAIAATLLRDADIYLLDEPSAYLDVEQRLATSRAIRHLMEKNEKTALVVEHDVLMIDYVSDRLIVFEGEPSKYGKALPPMGMREGMNRFLASVGITFRRDPDTGRPRANKEGSVKDREQKEKGEYYYTD | soluble |
| MRNTLKAATLESKFPLLAVEADCIISKDADITAVFEVDLPELFTVTAAEYEAIHAAWAKAIKVLPNYTVVHKQDWFIREDYRSQTDKENLSFLSRSYEMHFNERPFLNHKCYLYLTKTTKERMRMQSSFSSLCRGFIIPKEVDKDTTAHFLDTVGQFARIVNDTGLVHLRRLVGDEITGTENKAGLVEKYFCLSMENTTALEDIELGDDGLRVGDKHVSVHTLSELDALPSKVGTDCRYERLSTDKSDCKLSFASPVGLLLSCNHLYNQYIFLDDSGENLQRFEKNARNMQSLSKYSRSNQINKEWIDLYLNDAHSFGLTSVRAHCNIIAWTDNPMEVKNMRNDVGSQIAMMECKPRHNTVDAATLYWAAIPGNGADFPAEESFYTFIEQALCFWVEETNYRSSVSPFGLKMSDRISGKPLHVDISDLPMKRGVTTNRNKFVLGGSGSGKSFFMNHLARQYYEQGTHVVLIDTGNSYQGLCSLIHQKSGGKDGIYFTYTDENPIAFNPFFTDDKVFDIEKRESIKTLILTLWKKDNEPATRSEEVALSNAVSLYIRRIKEDESIVPSFNTFYEFVKTDYRRILEEKEVREKDFDLAGFLNVLEPYYRGGEYDFLLNSDKQLDLLGKRFIVFEIDQIKDHPILFPVTTIIIMELFINKMRRLKGVRKMIIIEEAWL | not soluble |
| MSLGRVTITAVAREAGVSAITVSRYFNQPEQVSPELRERIAAVVNALGYVPNLVAGGLASARSRVVAMVIPNISGPIFANTIQGFSDTLSQHGFQLLLASSYFSAEQEESAVRAFLGWSPAALVLTSRFHSPATEKMIEQTDVPVIETWDHQPERSPIQIGFSHYDVGVTAARYLYDKGYRRIAFVQNSIAGDFSALERRDGYIATLEGLGIKPWVFVPDAGRAPFEAGKQAMETLMSQTPRPDAIFFANDNLAAGALLASQRAGLHIPKDCAVMGFGDYAFAEMMLPSLTTIKPPALEIGVLAATRVLESLGVLPVEGDIQRLNLLECRLVERESTEGHHHHHH | soluble |
| MGSDKIHHHHHHMIEVQKQIDLDLELDIYKKLLEDNILFFDIETTGFDKEKEKVVLISGGWFLQDKKFVIKQYFAESLDEEVQVLKAFKEDVTKFNSWCSYNGKAFDEPFIKKRMNINNIEFTPPREHIDLYRIIRPYYKQLGMERCNLKSVEKYLGIHRADKIDGGISVELYYNFLDTKDERLRYVIMLHNYEDVLNLPSIFKLTYDIEKNDTLKREGGITKKQLDYLRFLMKKNNIQVTDDLKKISKKSASRIIDSILRGNIDIDKFNAIIKDSY | not soluble |
| MSLNYNAPHRHAVIELSQSAVVHNLKVIKENTHAKEIMAVLKANAFSHGLPEMASLSITAGATRFGMAMLDEALILRDLGYIQPIDVLGLTDPRYARLAAERNITLAFSTKESIKAAAEQLAGTGLTLKVSLPVDTGLNRIGFKSREDLVAAIQEVSAQDTLIFQSMWTHFATADTPNVDYVDFQISEWQRLTHDLPVEPNEKHFANTGIATWYPEKINTDIVRLGIGLFGINGSVPIMSMPFELIPALSLKAKVVNSKPLKKGDAVGYGAEYHAPNDGYLITIPIGHSDGYPFNGSGMRALVADGQIGHIVGGVAMDQSMILVTNPVAVGTTVTLIGRVGDQSITMQDLAEHTQSSIVALMNDFAPRLQRIIVSEGHHHHHH | not soluble |
| MIAELHIADDETAVKVLHLQRRAYTIEAQIIGSKALPPLHDTIASLQRCGERFFGYFQGERLVGAIACKRNGKTLRLCRLMVDPDCFRQGIASALLDFVIKQEPSISEIVVTTGSGNAPAIRFYERHGFRAIERIETPERIELTKLVKRSG | not soluble |
| MAGDPMSTVAFHTLGCKVNHYETEAIWQLFKEANYERVDFEANADVFVINTCTVTNTGDKKSRQIIRRAIRQNPDAVICVTGCYAQTSSAEIMEIPGVDVVVGTQDRHKLLGYIDEFRKERQPINGVGNIMKNRKYEELDVPYFTDRTRASLKIQEGCNNFCTFCIIPWARGLMRSRDPEKVVEQATQLVNSGYKEIVLTGIHTGGYGQDLKDYNLAQLLRDLETINGLERIRISSIEASQLTDEVIDVLERSTKVVRHLHIPLQSGSDTVLKRMRRKYTMDRFSERLTKLHKALPDLAVTSDVIVGFPGETEAEFQETYDFIVKHKFSELHVFPYSPRIGTPAARMDDQIDEEIKNERVHKLITLSNQLGKLYASKFDQDVLEVIPEEQGDTEGTLVGYADNYMKVQFEGDESLIGQIVKVKITQANYPLNEGQAIKVVDFATNKSDREVLVLEHHHHHH | soluble |
| MEPEDTQLKEDIKTTVNYIKQHGVEFENKLLEDERFSFIKKDDPLHEYYTKLMNEPTDTVSGEDNDRKSEREIARPPDFLFSQYDTGISRRDMEVIKLTARYYAKDKSIVEQMISKDGEARLNFMNSSHPLHKTFTDFVAQYKRVYSFTGQEIKKSKRTILDNCFERTQYWEFEKDKDREHDKLVELCKIQFAAIPWDKFTQVAKFSIPEDTEIFEGSLDLEQMRLRRVQTGIKLFDSIKPTNEEEKIVSDQGKQKGGDSKGKKRKIRAVGETRLKKSKK | soluble |
